Results on eight molecules are retold here after patent publication US20120177664A1 (IMMUNAS PHARMA, published 2012).

For this assay, the target named is T1, A beta oligomer (synthetic A beta1-40, HCl form, 0.1 mg/ml in PBS, incubated at 37 degrees C for one hour) (UniProt P05067 672-711).
T1 construct: domain: A beta1-40; non-fibrous multimer of the peptide; also called A beta 1-40 oligomer
Put plainly: SPR (Biacore 3000). As for the experimental part: The analysis was carried out by Surface Plasmon Resonance (SPR) using Biacore 3000 (GE Healthcare Sciences).
(In SPR one partner is held on a chip, and binding of the other changes the refractive index at the surface.)

B1: IR-094 antibody (antibody, mouse IgG2b, V domains shown)
VH: EVKLEESGGGLVQPGGSMKLSCVASGFTFSNYWMNWVRQSPEKGLEWVAEIRLKSNNYATHYAESVKGRFTISRDDSKSSVYLQMNNLRAEDTGIYYCTRRGPSGYDRAWFAYWGQGTLVTVSA
VL: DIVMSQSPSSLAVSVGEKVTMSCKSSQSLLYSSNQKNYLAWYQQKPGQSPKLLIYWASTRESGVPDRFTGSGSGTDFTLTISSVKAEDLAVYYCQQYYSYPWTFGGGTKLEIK
notes: mouse IgG2b
In general, Kd refers to a measure of binding affinity in units of concentration. Low values mean higher affinity, high ones lower affinity. A word on the koff: it is the first-order rate constant of dissociation. Low values mean a long-lived complex, high ones a short-lived complex. For orientation: kon means a measure of how fast the partners come together. On to B1, for which the Kd was determined as 59.4 nM, the koff was 0.0215 s⁻¹ and the on-rate (kon) stood at 362000 M⁻¹ s⁻¹.

B2: IR-081 antibody (antibody, mouse IgG2b, V domains shown)
VH: DVQLVESGGGLVQPGGSRKLSCAASGFTFSSFGMHWVRQAPEKGLEWVAYISSGSSTIYYADTVKGRFTISRDNPKNTLFLQMTSLRSEDTAMYYCARRWGEGAMDYWGQGTSVTVSS
VL: DVLMTQTPLSLPVSLGDQASISCRSSQSIVHSNGNTYLEWYLQKPGQSPKLLIYKVSNRFSGVPDRFSGSGSGTDFTLKISRVEAEDLGVYYCFQGSHVPPTFGGGTKLEIK
notes: mouse IgG2b
For B2, the affinity, expressed as Kd, was 1250 nM; the koff stood at 0.421 s⁻¹; the kon amounted to 336000 M⁻¹ s⁻¹.

B3: IR-098 antibody (antibody, mouse IgG2b, V domains shown)
VH: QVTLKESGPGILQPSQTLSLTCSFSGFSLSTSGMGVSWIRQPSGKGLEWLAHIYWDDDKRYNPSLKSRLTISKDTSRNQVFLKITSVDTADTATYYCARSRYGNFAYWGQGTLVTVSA
VL: DVLMTQTPLSLPVSLGDQASISCRSSQSIVHSNGNTYLEWYLQKPGQSPKLLIYKVSNRFSGVPDRFSGSGSGTDFTLKISRVEAEDLGVYYCFQGSHVPLTFGAGTKLELK
notes: mouse IgG2b
The molecule B3 registered a Kd of 36.3 nM, a koff of 0.0138 s⁻¹ and a kon of 380000 M⁻¹ s⁻¹.

B4: IR-097 antibody (antibody, mouse IgG2b, V domains shown)
VH: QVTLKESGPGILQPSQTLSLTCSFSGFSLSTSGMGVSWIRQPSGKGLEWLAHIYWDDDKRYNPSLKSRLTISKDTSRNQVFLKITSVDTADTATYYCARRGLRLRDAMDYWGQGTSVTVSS
VL: DVLMTQTPLSLPVSLGDQASISCRSSQSIVHSNGNTYLEWYLQKPGQSPKLLIYKVSNRFSGVPDRFSGSGSGTDFTLKISRVEAEDLGVYYCFQGSHVPLTFGAGTKLELK
notes: mouse IgG2b
Molecule B4 gave a Kd of 15.7 nM, a koff of 0.00303 s⁻¹ and a kon of 193000 M⁻¹ s⁻¹.

B5: IR-108 antibody (antibody, mouse IgG2a, V domains shown)
VH: QVTLKESGPGILKPSQTLSLTCSFSGFSLSTSGMGVGWIRQPSGKGLEWLAHIWWDDDKYYNPSLKSQLTISKDTSRNQVFLKITSVDTADTATYYCARRGLRRGDYFDYWGQGTTLTVSS
VL: DVLMTQTPLSLPVSLGDQASISCRSSQSIVHSNGNTYLEWYLQKPGQSPKLLIYKVSNRFSGVPDRFSGSGSGTDFTLKISRVEAEDLGVYYCFQGSHVPLTFGAGTKLELK
notes: mouse IgG2a
In turn, B5 returned a dissociation constant (Kd) of 11.8 nM, a koff of 0.00296 s⁻¹ and a kon of 250000 M⁻¹ s⁻¹.

B6: IR-079 antibody (antibody, mouse IgG2b, V domains shown)
VH: DVQLVESGGGLVQPGGSRKLSCAASGFTFSSFGMHWVRQAPEKGLEWVAYISSGSSTIYYADTVKGRFTISRDNPKNTLFLQMTSLRSEDTAMYYCARYGTLYYYAMDYWGQGTSVTVSS
VL: DVLMTQTPLSLPVSLGDQASISCRSSQSIVHSNGNTYLEWYLQKPGQSPKLLIYKVSNRFSGVPDRFSGSGSGTDFTLKISRVEAEDLGVYYCFQGSHVPPTFGGGTKLEIK
notes: mouse IgG2b
The molecule B6 returned a Kd of 1050 nM, a koff of 0.297 s⁻¹ and a kon of 282000 M⁻¹ s⁻¹.

B7: IR-083 antibody (antibody, mouse IgG2b, V domains shown)
VH: DVQLVESGGGLVQPGGSRKLSCAASGFTFSRFGMYWVRQAPEKGLEWVAYISSGSSTIYYADIVKGRFTISRDNPKNTLFLQMTSLRSEDTAMYYCARRGYYEAMDYWGQGTSVTVSS
VL: DVLMTQTPLSLPVSLGDQASISCRSSQSIVHSNGNTYLEWYLQKPGQSPKLLIYKVSNRFSGVPDRFSGSGSGTDFTLKISRVEADDLGVYYCFQGSHVPPTFGGGTKLEIK
notes: mouse IgG2b
On to B7, for which the Kd was determined as 699 nM, the koff turned out to be 0.431 s⁻¹ and the kon turned out to be 617000 M⁻¹ s⁻¹.

B8: IR-152 antibody (antibody, mouse IgG2b, V domains shown)
VH: DVQLVESGGGLVQPGGSRKLSCAASGFTFSSFGMHWVRQAPEKGLEWVAYISSGSSTIYYADTVKGRFTISRDNPKNTLFLQMTSLRSEDTAMYYCARGGHVGAMDYWGQGTSVTVSS
VL: DVVMTQTPLSLPVSLGDQASISCRSSQSLVHSNGNTYLHWYLQKPGQSPKLLIYKVSNRFSGVPDRFSGSGSGTDFTLKISRVEAEDLGVYFCSQSTHVPWTFGGGTKLEIK
notes: mouse IgG2b
In the case of B8, binding was put at a Kd of 58.8 nM, the koff is 0.00227 s⁻¹ and the kon was determined as 38600 M⁻¹ s⁻¹.
